Laboratory results published in US20250043019A1 (Janssen / Centocor, published 2025).

T1: human CD20 on the cell surface (human, UniProt P11836 1-297)
T1 sequence (looked up): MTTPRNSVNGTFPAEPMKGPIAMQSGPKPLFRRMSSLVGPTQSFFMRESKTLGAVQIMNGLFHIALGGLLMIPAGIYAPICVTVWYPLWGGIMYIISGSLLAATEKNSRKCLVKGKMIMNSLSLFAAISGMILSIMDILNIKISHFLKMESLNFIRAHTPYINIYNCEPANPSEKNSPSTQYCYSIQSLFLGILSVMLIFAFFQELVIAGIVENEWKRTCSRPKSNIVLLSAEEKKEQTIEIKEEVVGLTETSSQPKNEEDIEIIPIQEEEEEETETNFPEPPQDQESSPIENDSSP


Columns and labels:
[1] = target: T2, cynomolgus monkey CD79b antigen (cynomolgus monkey); experiment: SPR Biacore 8k, cyno CD79b injected up to 3000 nM
T2 construct: also called cyno CD79b; CD9W1.001
Method: General Protocol for SPR Affinity Assessment: Affinity assessment of the bispecific trispecific constructs against human CD79b were measure using recombinantly expressed extracellular domain of CD79b short and long isoforms (CD9W7.001 and CD9W8.001, respectively) by Surface Plasmon Resonance (SPR) using a Biacore 8k SPR system (Biacore) at 25° C. in HBSP+ buffer. Cross-reactivity of the same antibody panel was also assessed against cyno and mouse antigens (CD9W1.001 and CD9W105.001, respectively). Briefly, a C1 sensor chip was immobilized with anti-human Fc (target immobilization levels of >400 RU) using vendor recommended amino coupling protocol. […] The association and dissociation phases were measured for 2 or 3 minutes and 30 minutes, respectively.
The raw binding sensorgrams were processed using Biacore Insight software (Biacore) by double-referencing and the processed sensorgrams were analyzed for cross-reactivity and fitted to a 1:1 Langmuir model to obtain on-rates, off-rates and affinities.

[2] = target: human CD3 on primary T cells (human, UniProt P07766 23-207); experiment: cell-based or functional assay
[3] = target: T1, human CD20 on the cell surface; experiment: cell-based or functional assay

human CD3 on primary T cells, sequence (P07766 23-207): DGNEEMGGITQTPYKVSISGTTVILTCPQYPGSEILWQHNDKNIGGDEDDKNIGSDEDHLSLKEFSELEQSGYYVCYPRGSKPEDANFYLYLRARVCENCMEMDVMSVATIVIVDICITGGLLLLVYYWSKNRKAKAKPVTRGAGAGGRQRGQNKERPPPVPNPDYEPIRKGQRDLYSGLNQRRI

Binder	Kd [1]	EC50 of CD8 T-cell activation, CARNAVAL, E:T 1:1, 48 hours [2]	EC50 of CD8 T-cell activation, CARNAVAL, E:T 1:1, 72 hours [2]	EC50 of CD8 T-cell activation, CARNAVAL, E:T 5:1, 48 hours [2]	EC50 of CD8 T-cell activation, CARNAVAL, E:T 5:1, 72 hours [2]	EC50 of CD8 T-cell activation, HT, E:T 5:1, 48 hours [2]	EC50 of CD8 T-cell activation, HT, E:T 5:1, 72 hours [2]	EC50 of CD8 T-cell activation, JEKO-1, E:T 1:1, 48 hours [2]	EC50 of CD8 T-cell activation, JEKO-1, E:T 1:1, 72 hours [2]	EC50 of CD8 T-cell activation, JEKO-1, E:T 5:1, 48 hours [2]	EC50 of CD8 T-cell activation, JEKO-1, E:T 5:1, 72 hours [2]	EC50 of CD8 T-cell activation, OCI-Ly10, E:T 1:1, 48 hours [2]	EC50 of CD8 T-cell activation, OCI-Ly10, E:T 1:1, 72 hours [2]	EC50 of CD8 T-cell activation, OCI-Ly10, E:T 5:1, 48 hours [2]	EC50 of CD8 T-cell activation, OCI-Ly10, E:T 5:1, 72 hours [2]	EC50 of CD8 T-cell activation, WILL-2, E:T 5:1, 48 hours [2]	EC50 of CD8 T-cell activation, WILL-2, E:T 5:1, 72 hours [2]	EC50, autologous B-cell depletion, donor D198013 [3]	EC50, autologous B-cell depletion, donor D221837 [3]	EC50, autologous B-cell depletion, donor D329465 [3]
79C3B601 CD79bxCD3 bispecific antibody (bispecific antibody, human IgG1, kappa, L234A L235A, IgG1, knobs-in-holes, Fc-gamma-receptor-silencing mutations; HC1/LC = CD79b Fab arm, third chain = CD3 scFv-Fc arm; also called 79C3B601 bsAb; CD9B374 x CD3B2030-N106A) heavy: QVQLQESGPGLVKPSETLSLTCSVSGASISSFYWSWIRQPADEGLEWIGRISPSGKTNYIPSLKSRIIMSLDASKNQFSLRLNSVTAADTAMYYCARGEYSGTYSYSFDVWGQGTMVTVSSASTKGPSVFPLAPSSKSTSGGTAALGCLVKDYFPEPVTVSWNSGALTSGVHTFPAVLQSSGLYSLSSVVTVPSSSLGTQTYICNVNHKPSNTKVDKKVEPKSCDKTHTCPPCPAPEAAGGPSVFLFPPKPKDTLMISRTPEVTCVVVSVSHEDPEVKFNWYVDGVEVHNAKTKPREEQYNSTYRVVSVLTVLHQDWLNGKEYKCKVSNKALPAPIEKTISKAKGQPREPQVYTLPPSREEMTKNQVSLSCAVKGFYPSDIAVEWESNGQPENNYKTTPPVLDSDGSFFLVSKLTVDKSRWQQGNVFSCSVMHEALHNRFTQKSLSLSPGK light: DIVMTQSPLSLSVTPGEPASISCRSSESLLDSEDGNTYLDWFLQKPGQSPQLLIYTLSYRASGVPDRFSGSGSDTDFTLHISSLEAEDVGLYYCMQRMEFPLTFGQGTKVEIKRTVAAPSVFIFPPSDEQLKSGTASVVCLLNNFYPREAKVQWKVDNALQSGNSQESVTEQDSKDSTYSLSSTLTLSKADYEKHKVYACEVTHQGLSSPVTKSFNRGEC EIVLTQSPATLSASPGERVTLSCSASSSVSYMNWYQQKPGQAPRRWIYDSSKLASGVPARFSGSGSGRDYTLTISSLEPEDFAVYYCQQWSRNPPTFGGGTKVEIKGGSEGKSSGSGSESKSTGGSQVQLVQSGAEVKKPGSSVKVSCKASGYTFTRSTMHWVKQAPGQGLEWIGYINPSSAYTNYNQKFQGRVTLTADKSTSTAYMELSSLRSEDTAVYYCASPQVHYDYAGFPYWGQGTLVTVSSEPKSSDKTHTCPPCPAPEAAGGPSVFLFPPKPKDTLMISRTPEVTCVVVSVSHEDPEVKFNWYVDGVEVHNAKTKPREEQYNSTYRVVSVLTVLHQDWLNGKEYKCKVSNKALPAPIEKTISKAKGQPREPQVYTLPPSREEMTKNQVSLWCLVKGFYPSDIAVEWESNGQPENNYKTTPPVLDSDGSFFLYSKLTVDKSRWQQGNVFSCSVMHEALHNHYTQKSLSLSPGK	> 3000 nM	–	–	–	–	–	–	–	–	–	–	–	–	–	–	–	–	–	–	–
mosunetuzumab (bispecific antibody) chain 1: not shown chain 2: DIQMTQSPSSLSASVGDRVTITCRASSSVSYMHWYQQKPGKAPKPLIYAPSNLASGVPSRFSGSGSGTDFTLTISSLQPEDFATYYCQQWSFNPPTFGQGTKVEIKRTVAAPSVFIFPPSDEQLKSGTASVVCLLNNFYPREAKVQWKVDNALQSGNSQESVTEQDSKDSTYSLSSTLTLSKADYEKHKVYACEVTHQGLSSPVTKSFNRGEC chain 3: EVQLVQSGAEVKKPGASVKVSCKASGYTFTNYYIHWVRQAPGQGLEWIGWIYPGDGNTKYNEKFKGRATLTADTSTSTAYLELSSLRSEDTAVYYCARDSYSNYYFDYWGQGTLVTVSSASTKGPSVFPLAPSSKSTSGGTAALGCLVKDYFPEPVTVSWNSGALTSGVHTFPAVLQSSGLYSLSSVVTVPSSSLGTQTYICNVNHKPSNTKVDKKVEPKSCDKTHTCPPCPAPELLGGPSVFLFPPKPKDTLMISRTPEVTCVVVDVSHEDPEVKFNWYVDGVEVHNAKTKPREEQYGSTYRVVSVLTVLHQDWLNGKEYKCKVSNKALPAPIEKTISKAKGQPREPQVYTLPPSREEMTKNQVSLSCAVKGFYPSDIAVEWESNGQPENNYKTTPPVLDSDGSFFLVSKLTVDKSRWQQGNVFSCSVMHEALHNHYTQKSLSLSPGK chain 4: not shown	–	0.053 nM	0.013 nM	0.038 nM	0.021 nM	0.148 nM	0.078 nM	0.022 nM	0.021 nM	0.043 nM	0.019 nM	0.045 nM	0.035 nM	0.256 nM	0.12 nM	1.24 nM	1.27 nM	0.2 nM	0.5 nM	0.2 nM
